Results taken from US20260234255A1 (Genmab, published 2026).

What was measured:
human CD30 [1] = biological target: T1, human CD30 (human, UniProt P28908 19-595); assay: flow cytometry, SUP-M2 cells
T1 construct: The same molecule is used for CD30 on HL/ALCL/NHL cell lines; also called huCD30; TNFRSF8
T1 sequence: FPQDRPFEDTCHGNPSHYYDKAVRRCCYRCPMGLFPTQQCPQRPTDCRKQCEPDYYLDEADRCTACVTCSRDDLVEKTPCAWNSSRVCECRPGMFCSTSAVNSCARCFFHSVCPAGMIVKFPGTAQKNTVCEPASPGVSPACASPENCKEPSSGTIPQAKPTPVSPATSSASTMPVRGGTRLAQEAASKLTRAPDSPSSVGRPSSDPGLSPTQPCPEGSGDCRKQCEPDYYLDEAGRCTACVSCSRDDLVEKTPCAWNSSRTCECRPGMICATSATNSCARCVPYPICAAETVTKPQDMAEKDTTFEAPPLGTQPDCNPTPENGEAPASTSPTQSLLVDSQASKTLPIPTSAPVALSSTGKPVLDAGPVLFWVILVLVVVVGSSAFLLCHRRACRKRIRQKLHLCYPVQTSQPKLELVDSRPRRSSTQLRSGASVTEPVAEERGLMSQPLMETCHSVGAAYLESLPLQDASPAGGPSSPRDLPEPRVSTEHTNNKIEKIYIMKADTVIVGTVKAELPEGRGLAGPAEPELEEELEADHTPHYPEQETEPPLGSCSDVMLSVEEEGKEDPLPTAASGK

human CD30 [2] = biological target: T1, human CD30; assay: flow cytometry, KI-JK cells
human CD30 [3] = biological target: T1, human CD30; assay: flow cytometry, DL-40 cells
human CD30 [4] = biological target: T1, human CD30; assay: flow cytometry, DEL cells
human CD30 [5] = biological target: T1, human CD30; assay: flow cytometry, SR-786 cells
human CD30 [6] = biological target: T1, human CD30; assay: flow cytometry, L-1236 cells
human CD30 [7] = biological target: T1, human CD30; assay: flow cytometry, HH cells
Description: Cells (3×10⁴ cells/well) were incubated in polystyrene 96-well round-bottom plates (Greiner bio-one, cat. no. 650180) with serial dilutions of antibodies (range 0.0046 to 10 μg/mL in 3-fold dilution steps) in 50 μL staining buffer at 4° C. for 30 min. After washing twice in staining buffer, cells were incubated with 50 μL secondary antibody at 4° C. for 30 min. […] Next, cells were washed twice in staining buffer, resuspended in 100 μL staining buffer supplemented with TO-PRO-3 iodide (Thermo Fisher Scientific; cat. no. T3605; 1:8000 dilution) and analyzed on a FACSCelesta flow cytometer (BD Biosciences, USA). Live cells were gated based on FSC/SSC and absence of TOPRO-3 staining. Binding curves were analyzed by non-linear regression of log-transformed data (sigmoidal dose-response with variable slope, four parameters) using GraphPad Prism V7.02 software (GraphPad Software, San Diego, CA, USA).

human CD30 [8] = biological target: T1, human CD30; assay: flow cytometry, HDLM-2 cells
human CD30 [9] = biological target: T1, human CD30; assay: flow cytometry, L-540 cells
human CD30 [10] = biological target: T1, human CD30; assay: flow cytometry, L-82 cells
human CD30 [11] = biological target: T1, human CD30; assay: flow cytometry, KM-H2 cells
human CD30 [12] = biological target: T1, human CD30; assay: flow cytometry, NCEB-1 cells

B1: IgG1-CD30-MDX060-FERR (antibody)
heavy: QVQLQQWGAGLLKPSETLSLTCAVYGGSFSAYYWSWIRQPPGKGLEWIGDINHGGGTNYNPSLKSRVTISVDTSKNQFSLKLNSVTAADTAVYYCASLTAYWGQGSLVTVSSASTKGPSVFPLAPSSKSTSGGTAALGCLVKDYFPEPVTVSWNSGALTSGVHTFPAVLQSSGLYSLSSVVTVPSSSLGTQTYICNVNHKPSNTKVDKRVEPKSCDKTHTCPPCPAPEFERGPSVFLFPPKPKDTLMISRTPEVTCVVVDVSHEDPEVKFNWYVDGVEVHNAKTKPREEQYNSTYRVVSVLTVLHQDWLNGKEYKCKVSNKALPAPIEKTISKAKGQPREPQVYTLPPSREEMTKNQVSLTCLVKGFYPSDIAVEWESNGQPENNYKTTPPVLDSDGSFFLYSRLTVDKSRWQQGNVFSCSVMHEALHNHYTQKSLSLSPG
light: DIQMTQSPTSLSASVGDRVTITCRASQGISSWLTWYQQKPEKAPKSLIYAASSLQSGVPSRFSGSGSGTDFTLTISSLQPEDFATYYCQQYDSYPITFGQGTRLEIKRTVAAPSVFIFPPSDEQLKSGTASVVCLLNNFYPREAKVQWKVDNALQSGNSQESVTEQDSKDSTYSLSSTLTLSKADYEKHKVYACEVTHQGLSSPVTKSFNRGEC
notes: Monospecific, bivalent parental antibody; also called IgG1-huCD30-MDX060-FERR
EC50 (read off the curve) (human CD30 [1]): ~0.03 µg/mL | EC50 (read off the curve) (human CD30 [2]): ~0.06 µg/mL | EC50 (read off the curve) (human CD30 [3]): ~0.07 µg/mL | EC50 (read off the curve) (human CD30 [4]): ~0.1 µg/mL | EC50 (read off the curve) (human CD30 [5]): ~0.1 µg/mL | EC50 (read off the curve) (human CD30 [6]): ~0.04 µg/mL | EC50 (read off the curve) (human CD30 [7]): ~0.1 µg/mL | EC50 (read off the curve) (human CD30 [8]): ~0.06 µg/mL | EC50 (read off the curve) (human CD30 [9]): ~0.3 µg/mL | EC50 (read off the curve) (human CD30 [10]): ~0.07 µg/mL | EC50 (read off the curve) (human CD30 [11]): ~0.04 µg/mL | EC50 (read off the curve) (human CD30 [12]): ~0.04 µg/mL
